B1: CeGNA1 (Caenorhabditis elegans) (protein)
chain: MSHIFDASVLAPHIPSNLPDNFKVRPLAKDDFSKGYVDLLSQLTSVGNLDQEAFEKRFEAMRTSVPNYHIVVIEDSNSQKVVASASLVVEMKFIHGAGSRGRVEDVVVDTEMRRQKLGAVLLKTLVSLGKSLGVYKISLECVPELLPFYSQFGFQDDCNFMTQRF
notes: full-length, 165 residues; GST fusion from pGEX-6P-1 in E. coli BL21(DE3) pLysS, GST cut with PreScission protease; homodimer; 18 876 Da by MALDI
B2: CeGNA1 (Caenorhabditis elegans; C141S) (protein)
chain: MSHIFDASVLAPHIPSNLPDNFKVRPLAKDDFSKGYVDLLSQLTSVGNLDQEAFEKRFEAMRTSVPNYHIVVIEDSNSQKVVASASLVVEMKFIHGAGSRGRVEDVVVDTEMRRQKLGAVLLKTLVSLGKSLGVYKISLESVPELLPFYSQFGFQDDCNFMTQRF
notes: as for B1

Substrate: CC(=O)SCCNC(=O)CCNC(=O)[C@H](O)C(C)(C)COP(=O)(O)OP(=O)(O)OC[C@H]1O[C@@H](n2cnc3c(N)ncnc32)[C@H](O)[C@@H]1OP(=O)(O)O
Experiment: purified protein
Format: biochemical, Caenorhabditis elegans
Details: GlcN-6P constant, 25 mM Tris-HCl pH 7.5, 250 mM NaCl, 2 mM EDTA, 5% glycerol, 293 K, 20.0 °C

| Protein | Km (3 nM enzyme) [µM] | kcat (3 nM enzyme) [s⁻¹] | kcat/Km (3 nM enzyme) [M⁻¹ s⁻¹] | Km (10 nM enzyme) [µM] | kcat (10 nM enzyme) [s⁻¹] | kcat/Km (10 nM enzyme) [M⁻¹ s⁻¹] |
| --- | --- | --- | --- | --- | --- | --- |
| B1 | 192 ± 16 | 252 | 1.3e+06 | – | – | – |
| B2 | – | – | – | 261 ± 33 | 48 | 200000 |
